Results on seven molecules are retold here after publication PMC9143278.

The chains are these.
B1: muIL-1β (commercial recombinant murine IL-1β) (ligand)
chain: VPIRQLHYRLRDEQQKSLVLSDPYELKALHLNGQNINQQVIFSMSFVQGEPSNDKIPVALGLKGKNLYLSCVMKDGTPTLQLESVDPKQYPKKKMEKRFVFNKIEVKSKVEFESAEFPNWYISTSQAEHKPVFLGNNSGQDIIDFTMESVSS

The target of the test is human and murine IL-1R1 on HEK-Blue IL-1R cells (human and murine).
For IL-1β(R11G)-Tag (ligand), the SEAP reporter (620 nm) in HEK-Blue IL-1R cells after overnight incubation; EC50 of a 3-fold dilution series from 100 ng/mL stood at 2.7.

For “huIL-1β (commercial recombinant human IL-1β) (from UniProt P01584 117-269) (ligand)”, the SEAP reporter (620 nm) in HEK-Blue IL-1R cells after overnight incubation; EC50, positive control was determined as 0.25.

On to IL-1β(Q15G)-Tag (ligand), for which the SEAP reporter (620 nm) in HEK-Blue IL-1R cells after overnight incubation; EC50 of a 3-fold dilution series from 100 ng/mL was determined as 5.8.

On to “IL-1β-Tag (His-TEV-muIL-1β-Tag, wild type) (from UniProt P10749 118-269) (ligand)”, for which the SEAP reporter (620 nm) in HEK-Blue IL-1R cells after overnight incubation; EC50 of a 3-fold dilution series from 100 ng/mL was 0.75.

As to IL-1β(H30G)-Tag (ligand), the SEAP reporter (620 nm) in HEK-Blue IL-1R cells after overnight incubation; EC50 of a 3-fold dilution series from 100 ng/mL is 2.4.

Consider IL-1β(N32G)-Tag (ligand), for which the SEAP reporter (620 nm) in HEK-Blue IL-1R cells after overnight incubation; EC50 of a 3-fold dilution series from 100 ng/mL was determined as 0.89.

Consider B1, for which the SEAP reporter (620 nm) in HEK-Blue IL-1R cells after overnight incubation; EC50, positive control was 0.21.
